Patent US20090011988A1 (Genentech, published 2009)
Positions count from the first letter of the chain named. Names may count otherwise. No end group written: not given here.

T1: human IGFBP-1 (human, UniProt P08833 26-259)
T1 sequence (looked up): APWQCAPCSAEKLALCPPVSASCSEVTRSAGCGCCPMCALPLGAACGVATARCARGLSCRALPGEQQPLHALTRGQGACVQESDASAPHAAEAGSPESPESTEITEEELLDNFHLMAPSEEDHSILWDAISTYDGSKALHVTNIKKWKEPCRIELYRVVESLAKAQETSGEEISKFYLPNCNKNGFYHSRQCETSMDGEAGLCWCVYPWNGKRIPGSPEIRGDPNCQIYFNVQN

B1: 23B3.5 (peptide)
peptide displayed on M13 phage as a fusion to g8p: DKEVCYLGPETWLCFWWP
modifications: not fully specified (bridges); cysteine pairing not given here; also: displayed on phage coat protein g8
notes: whole phage particle in the assay; also called peptide-phage clone 23B3.5 (g8 display)
B2: Ala(1-3)-IGF-1 displayed on phage (ligand, bacteriophage M13)
chain: AAATLCGAELVDALQFVCGDRGFYFNKPTGYGSSSRRAPQTGIVDECCFRSCDLRRLEMYCAPLKPAKSVSGGGSGSGDFDYEKMANANKGAMTENADENALQSDAKGKLDSVATDYGAAIDGFIGDVSGLANGNGATGDFAGSNSQMAQVGDGDNSPLMNNFRQYLPSLPQSVECRPFVFSAGKPYEFSIDCDKINLFRGVFAFLLYVATFMYVFSTFANILRNKES
notes: range 249-406
B3: IGF-1 P2A displayed on phage (ligand, bacteriophage M13)
chain: B2 chain with A1S, A3E
notes: range 249-406; G1S-A70V background
B4: 23A3.4 (peptide)
peptide displayed on M13 phage as a fusion to g8p: EPWLCQYYEAAMLYLCWEEG
modifications: not fully specified (bridges); cysteine pairing not given here; also: displayed on phage coat protein g8
notes: whole phage particle in the assay; also called peptide-phage clone 23A3.4 (g8 display)
B5: IGF-1 D45A displayed on phage (ligand, not shown: large carriers; small tags and cut ends)
chain: SPETLCGAELVDALQFVCGDRGFYFNKPTGYGSSSRRAPQTGIVAECCFRSCDLRRLEMYCAPLKPAKSV
notes: G1S-A70V background
B6: IGF-1 L57A displayed on phage (ligand, not shown: large carriers; small tags and cut ends)
chain: B5 chain with A45D, L57A
modifications: not fully specified; ends and bridges not checked
notes: G1S-A70V background
B7: IGF-1 R50A displayed on phage (ligand, not shown: large carriers; small tags and cut ends)
chain: B5 chain with A45D, R50A
notes: G1S-A70V background
B8: IGF-1 D53A displayed on phage (ligand, not shown: large carriers; small tags and cut ends)
chain: B5 chain with A45D, D53A
modifications: ends and bridges not checked; also: displayed on M13 phage, fused to g3p fragment (249-406) via amber-codon residue
notes: G1S-A70V background
B9: IGF-1 T41A displayed on phage (ligand, not shown: large carriers; small tags and cut ends)
chain: B5 chain with T41A, A45D
notes: G1S-A70V background
B10: IGF-1 I43A displayed on phage (ligand, not shown: large carriers; small tags and cut ends)
chain: B5 chain with I43A, A45D
notes: G1S-A70V background
B11: IGF-1 V44A displayed on phage (ligand, not shown: large carriers; small tags and cut ends)
chain: B5 chain with V44A, A45D
notes: G1S-A70V background
B12: IGF-1 S51A displayed on phage (ligand, not shown: large carriers; small tags and cut ends)
chain: B5 chain with A45D, S51A
modifications: not fully specified; ends and bridges not checked
notes: G1S-A70V background
B13: IGF-1 E58A displayed on phage (ligand, not shown: large carriers; small tags and cut ends)
chain: B5 chain with A45D, E58A
modifications: ends and bridges not checked; also: displayed on M13 phage, fused to g3p fragment (249-406) via amber-codon residue
notes: G1S-A70V background
B14: IGF-1 F49A displayed on phage (ligand, not shown: large carriers; small tags and cut ends)
chain: B5 chain with A45D, F49A
notes: G1S-A70V background; also called IGF-F49A phage
B15: IGF-1 R55A displayed on phage (ligand, not shown: large carriers; small tags and cut ends)
chain: B5 chain with A45D, R55A
modifications: not fully specified; ends and bridges not checked
notes: G1S-A70V background
B16: IGF-1 L54A displayed on phage (ligand, not shown: large carriers; small tags and cut ends)
chain: B5 chain with A45D, L54A
modifications: ends and bridges not checked; also: displayed on M13 phage, fused to g3p fragment (249-406) via amber-codon residue
notes: G1S-A70V background
B17: IGF-1 G42A displayed on phage (ligand, not shown: large carriers; small tags and cut ends)
chain: B5 chain with G42A, A45D
notes: G1S-A70V background
B18: IGF-1 M59A displayed on phage (ligand, not shown: large carriers; small tags and cut ends)
chain: B5 chain with A45D, M59A
modifications: not fully specified; ends and bridges not checked
notes: G1S-A70V background
B19: IGF-1 R56A displayed on phage (ligand, not shown: large carriers; small tags and cut ends)
chain: B5 chain with A45D, R56A
modifications: not fully specified; ends and bridges not checked
notes: G1S-A70V background
B20: IGF-1 E46A displayed on phage (ligand, not shown: large carriers; small tags and cut ends)
chain: B5 chain with A45D, E46A
notes: G1S-A70V background
B21: 23B3.2 (peptide)
peptide displayed on M13 phage as a fusion to g8p: EVLLCSDGPQLYLCELYA
modifications: not fully specified (bridges); cysteine pairing not given here; also: displayed on phage coat protein g8
notes: whole phage particle in the assay; also called peptide-phage clone 23B3.2 (g8 display)
B22: 23A3.1 (peptide)
peptide displayed on M13 phage as a fusion to g8p: EPWLCQYYEAAMLYLCWEEG
modifications: not fully specified (bridges); cysteine pairing not given here; also: displayed on phage coat protein g8
notes: whole phage particle in the assay; also called peptide-phage clone 23A3.1 (g8 display)
B23: 23B3.4 (peptide)
peptide displayed on M13 phage as a fusion to g8p: SGVECVWGPQWGFCVEEY
modifications: not fully specified (bridges); cysteine pairing not given here; also: displayed on phage coat protein g8
notes: whole phage particle in the assay; also called peptide-phage clone 23B3.4 (g8 display)
B24: 23B3.1 (peptide)
peptide displayed on M13 phage as a fusion to g8p: TGVDCQCGPVHCVCMDWA
notes: whole phage particle in the assay; also called peptide-phage clone 23B3.1 (g8 display)

Assays:
[1] = target: T2, recombinant human IGFBP-3 (human, UniProt P17936 28-291); assay: competitive phage ELISA
T2 sequence (P17936 28-291 limits assumed): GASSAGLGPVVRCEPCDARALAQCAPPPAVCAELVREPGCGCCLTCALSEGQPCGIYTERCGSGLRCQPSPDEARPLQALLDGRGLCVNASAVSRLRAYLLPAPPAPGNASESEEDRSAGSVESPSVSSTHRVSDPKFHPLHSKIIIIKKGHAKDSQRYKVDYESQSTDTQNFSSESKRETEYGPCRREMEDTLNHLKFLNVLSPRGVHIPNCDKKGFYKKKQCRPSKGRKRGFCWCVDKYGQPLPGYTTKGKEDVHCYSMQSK
Description: (§1) E. coli cells (XL1-Blue, Stratagene) freshly transformed with phagemid vector were grown overnight in 5 mL 2YT medium (Sambrook et al., supra) in the presence of M13-VCS helper phage (Stratagene). Phage particles were harvested and resuspended in PBS buffer as described in Lowman, H. B., “Phage Display of Peptide Libraries on Protein Scaffolds,” in Cabilly, S. (ed.), Combinatorial Peptide Library Protocols (Humana Press Inc.: Totowa, N.J., 1998), pp. 249-264. Then phage concentrations were normalized to yield a maximal ELISA signal of 0.2-0.4 for each mutant (Lowman, in Cabilly, S. (ed.), supra). Threefold serial dilutions of soluble competitor were prepared on non-absorbent microtiter plates (Nunc, F, 96 wells) with binding buffer (0.5% TWEEN 20%/PBS) containing phage at the previously determined concentrations. […] After blocking, the plates containing immobilized target were washed with 0.05% TWEEN™/PBS buffer and subsequently incubated with 80 μl/well of the premixed phage-competitor solutions for 1 hour at room temperature. […] IC₅₀ values were determined by fitting the binding data to a generic saturation curve (Lowman, in Cabilly, S. (ed.), supra). At least two individual clones of each IGF-1 mutant were assayed. Numbers in Table XIII represent mean±standard deviation of individually assessed IC₅₀ values.

human IGFBP-1 = target: T1, human IGFBP-1; assay: competitive phage ELISA
Description: as §1

[2] = target: T2, recombinant human IGFBP-3; assay: phage ELISA (IGF-blocking phage assay): g8 peptide-phage on an IGFBP-3-coated plate, without and with IGF-1; OD492
Description: The plates were then washed ten times, as above, and a solution of rabbit anti-phage antibody mixed with a goat-anti-rabbit conjugate of horseradish peroxidase was added. After an incubation of 1 hour at room temperature, the plates were developed with a chromogenic substrate, o-phenylenediamine (Sigma). The reaction was stopped with addition of ½ volume of 2.5 M H₂SO₄. Optical density at 490 nm was measured on a spectrophotometric plate reader.
In each case, the phagemid clone was grown from a single colony overnight at 37° C. in a culture volume of 5 ml. The phage particles were prepared as described above.

Molecule	IC50 [1] [nM]	relative IC50 (mut/G1S-A70V) [1]	IC50 (human IGFBP-1) [nM]	relative IC50 (mut/G1S-A70V) (human IGFBP-1)	binding result [2]
IGF-1 F23A displayed on phage (from UniProt P69168 267-424) (ligand)	2.18	2.9	–	–	–
IGF-1 D20A displayed on phage (from UniProt P69168 267-424) (ligand)	1.11	1.5	–	–	–
IGF-1 L14A displayed on phage (from UniProt P69168 267-424) (ligand)	–	–	36.7	4.5	–
IGF-1 Q15A displayed on phage (from UniProt P69168 267-424) (ligand)	–	1.7	–	–	–
IGF-1 G22A displayed on phage (from UniProt P69168 267-424) (ligand)	2.07	2.8	–	–	–
IGF-1 Y24A displayed on phage (from UniProt P69168 267-424) (ligand)	2.53	3.4	–	–	–
IGF-1 F25A displayed on phage (from UniProt P69168 267-424) (ligand)	3.69	4.9	181	22.1	–
IGF-1 D12A displayed on phage (from UniProt P69168 267-424) (ligand)	–	–	4.3	0.5	–
IGF-1 L10A displayed on phage (from UniProt P69168 267-424) (ligand)	3.55	4.7	311	37.9	–
IGF-1 P28A displayed on phage (from UniProt P69168 267-424) (ligand)	1.41	1.9	–	–	–
IGF-1 V17A displayed on phage (from UniProt P69168 267-424) (ligand)	3.67	4.9	42.9	5.2	–
B1	–	–	–	–	binds
B2	1.12	–	90.4	–	–
B3	0.81	–	11	–	–
B4	–	–	–	–	binds
B5	0.69	–	4.7	–	–
B6	1.78	–	21.8	–	–
B7	0.64	–	16.2	–	–

Molecule	IC50 [1] [nM]	relative IC50 (mut/G1S-A70V) [1]	IC50 (human IGFBP-1) [nM]	relative IC50 (mut/G1S-A70V) (human IGFBP-1)	binding result [2]
B8	1.05	–	15.3	–	–
B9	0.43	–	13.7	–	–
B10	1.17	–	31.3	–	–
B11	1.03	–	18.8	–	–
B12	0.65	–	13.4	–	–
B13	1.03	–	11.9	–	–
B14	2.72	–	–	> 100	–
B15	0.66	–	9	–	–
B16	1.83	–	23.1	–	–
B17	0.53	–	15.7	–	–
B18	0.74	–	13.1	–	–
B19	1	–	13.1	–	–
B20	0.94	–	7.9	–	–
B21	–	–	–	–	binds
B22	–	–	–	–	binds
B23	–	–	–	–	binds
B24	–	–	–	–	binds
